B1: Pistol ribozyme (parent)
chain: GGGUCGUUGUUCCAUAAUCGCGUGGAUAUGGCACGCAAGUUUCUACCGGGCACCGUAAAUGUCCGACUGGAGCCGUUCGGGCGGCUAUAAACAGACCUCAGGCCCGAAGCGUGGCGGCACCUGCCGCCGGUGGUAAAAAAGAUCGGAAGAGCACACGUCU

The variants in the data set derive from B1. The data set is described as follows: aptazyme ON/OFF ratio, guanine; higher = stronger switching; co-transcriptional cleavage with and without guanine.
Consider U7A U8G G9U U10G C12A C13U, for which the “aptazyme ON/OFF ratio” value turned out to be 1.15.
The value for U7A U8G G9U U10G C12A C13G was 1.14; that for U7A U8G G9U U10A U11A C12U C13U was 1.2; that for U7A U8G G9U U10A U11A C12U C13A was 1.26.
For U7A U8G G9U U10A U11A C12U C13G, the “aptazyme ON/OFF ratio” value is 1.24.
Under U7A U8G G9C U10G U11G C12U stands 1.2; under U7A U8G G9C U10G U11G C12A, 1.36; under U7A U8G G9C U10G U11G C12G, 1.19.
The value for U7A U8G G9C U11G C12U C13A was 1.44; that for U7A U8G G9C U11G C12U C13U was 1.4.
Turning to U7A U8G G9C U11G C12U C13G, the “aptazyme ON/OFF ratio” value turned out to be 1.41.
The value for U7A U8G G9U U10C U11G C12A C13U was 1.45; that for U7A U8G G9U U10C U11G C12A C13A was 1.16.
Take U7A U8G G9U U10C U11G C12A C13G: the “aptazyme ON/OFF ratio” value came to 1.41.
With U7A U8G G9U U10A U11C C12G C13G, the “aptazyme ON/OFF ratio” value stood at 1.27.
Consider U7A U8G G9U U10A U11C C12G C13U, for which the “aptazyme ON/OFF ratio” value stood at 1.4.
With U7A U8G G9U U10A U11C C12G C13A, the “aptazyme ON/OFF ratio” value stood at 1.14.
The value for U7A U8G G9C U10G U11G C13A was 1.19; that for U7A U8G G9C U10G U11G C13U was 1.31.
Consider U7A U8G G9C U10G U11G C13G, for which the “aptazyme ON/OFF ratio” value stood at 1.21.
Turning to U7A U8G G9C U11C C12U C13A, the “aptazyme ON/OFF ratio” value stood at 1.41.
In the case of U7A U8G G9C U11C C12U C13U, the “aptazyme ON/OFF ratio” value turned out to be 1.22.
In the case of U7A U8G G9C U11C C12U C13G, the “aptazyme ON/OFF ratio” value is 1.38.
The value for U7A U8G G9C U10G U11A C12U C13U was 1.42; that for U7A U8G G9C U10G U11A C12U C13A was 1.33; that for U7A U8G G9C U10G U11A C12U C13G was 1.23.
Turning to U7A U8G G9U U10A U11C C12A C13A, the “aptazyme ON/OFF ratio” value was found to be 1.25.
Under U7A U8G G9U U10A U11C C12A C13G stands 1.2; under U7A U8G G9U U10A U11C C12A C13U, 1.37; under U7A U8G G9C U10C C12U C13U, 1.38.
Under U7A U8G G9C U10C C12U C13A stands 1.14; under U7A U8G G9C U10C C12U C13G, 1.17.
Consider U7A U8G G9U U10C C12A C13G, for which the “aptazyme ON/OFF ratio” value is 1.01.
The value for U7A U8G G9U U10C C12A C13A was 1.46.
Turning to U7A U8G G9U U10C C12A C13U, the “aptazyme ON/OFF ratio” value came out at 1.35.
Under U7A U8G G9U U10A U11G C12G C13G stands 1.14; under U7A U8G G9U U10A U11G C12G C13A, 1.05; under U7A U8G G9U U10A U11G C12G C13U, 1.52.
The value for U7A U8G G9C U10C U11C C12U C13G was 1.06; that for U7A U8G G9C U10C U11C C12U C13A was 1.05; that for U7A U8G G9C U10C U11C C12U C13U was 1.01.
On to U7A U8G G9C U10G C12A C13A, for which the “aptazyme ON/OFF ratio” value turned out to be 1.31.
Consider U7A U8G G9C U10G C12A C13U, for which the “aptazyme ON/OFF ratio” value turned out to be 1.56.
With U7A U8G G9C U10G C12A C13G, the “aptazyme ON/OFF ratio” value came to 1.1.
Under U7A U8G G9C U11A C12A C13G stands 1.37; under U7A U8G G9C U11A C12A C13U, 1.47.
U7A U8G G9C U11A C12A C13A: the “aptazyme ON/OFF ratio” value was 1.25.
Regarding U7A U8G G9C U11A C12G, the “aptazyme ON/OFF ratio” value turned out to be 1.34.
The value for U7A U8G G9C U11A C12A was 1.73.
For U7A U8G G9C U11A C12U, the “aptazyme ON/OFF ratio” value was 1.53.
The value for U7A U8G G9C U11C C12A C13A was 1.17; that for U7A U8G G9C U11C C12A C13U was 1.66.
Under U7A U8G G9C U11C C12A C13G stands 1.18; under U7A U8G G9C U11A C12U C13U, 1.46; under U7A U8G G9C U11A C12U C13G, 1.37.
For U7A U8G G9C U11A C12U C13A, the “aptazyme ON/OFF ratio” value came out at 1.4.
Regarding U7A U8G G9C U10C U11G C12U C13G, the “aptazyme ON/OFF ratio” value came out at 1.15.
Under U7A U8G G9C U10C U11G C12U C13U stands 1.41; under U7A U8G G9C U10C U11G C12U C13A, 1.15; under U7A U8G G9C U11C C12U, 1.49.
In the case of U7A U8G G9C U11C C12G, the “aptazyme ON/OFF ratio” value was determined as 1.65.
For U7A U8G G9C U11C C12A, the “aptazyme ON/OFF ratio” value is 2.15.
The value for U7A U8G G9U was 3.18; that for U7A U8G G9C U10C U11G C12A was 1.06.
Under U7A U8G G9C U10C U11G C12G stands 1.16.
In the case of U7A U8G G9C U10C U11G C12U, the “aptazyme ON/OFF ratio” value was 1.03.
Under U7A U8G G9U U10A U11A C12G C13U stands 1.22; under U7A U8G G9U U10A U11A C12G C13A, 1.36; under U7A U8G G9U U10A U11A C12G C13G, 1.28.
In the case of U7A U8G G9C U10C C12A C13U, the “aptazyme ON/OFF ratio” value stood at 1.12.
On to U7A U8G G9C U10C C12A C13A, for which the “aptazyme ON/OFF ratio” value stood at 1.08.
Regarding U7A U8G G9C U10C C12A C13G, the “aptazyme ON/OFF ratio” value came out at 1.05.
Under U7A U8G G9U U10A C13G stands 1.12; under U7A U8G G9U U10A C13A, 1.36.
The value for U7A U8G G9U U10A C13U was 1.23; that for U7A U8G G9U U10C C12G C13U was 1.68.
The value for U7A U8G G9U U10C C12G C13A was 1.39; that for U7A U8G G9U U10C C12G C13G was 1.16; that for U7A U8G G9C U10A U11G C13G was 1.26.
U7A U8G G9C U10A U11G C13A: the “aptazyme ON/OFF ratio” value was 1.29.
As to U7A U8G G9C U10A U11G C13U, the “aptazyme ON/OFF ratio” value came out at 1.37.
The value for U7A U8G G9C U10C U11C C13U was 1.04; that for U7A U8G G9C U10C U11C C13A was 0.995.

For the origin of these results see the RNAGym collection of RNA variant scans (doi:10.1021/acssynbio.7b00057).
